Experimental data taken from publication PMC11796321.

What was measured:
[1] = target: recombinant his-tagged soluble human IL-6R (human) (UniProt P08887); assay: SPR; Biacore X100, multi-cycle, NTA sensor chip; his-tagged soluble hIL-6R or hIL-11R immobilised (100-250 RU per cycle); cytokines injected 133.33 to 0.183 nM, 30 uL/min, 180 s, dissociation 800 s; 25 °C, PBS with 0.05% P20 and 50 uM EDTA; two-state reaction fit
[2] = target: recombinant his-tagged soluble human IL-11R (human) (UniProt Q14626); assay: as above
Chain of recombinant his-tagged soluble human IL-11R (human) (Q14626 24-370): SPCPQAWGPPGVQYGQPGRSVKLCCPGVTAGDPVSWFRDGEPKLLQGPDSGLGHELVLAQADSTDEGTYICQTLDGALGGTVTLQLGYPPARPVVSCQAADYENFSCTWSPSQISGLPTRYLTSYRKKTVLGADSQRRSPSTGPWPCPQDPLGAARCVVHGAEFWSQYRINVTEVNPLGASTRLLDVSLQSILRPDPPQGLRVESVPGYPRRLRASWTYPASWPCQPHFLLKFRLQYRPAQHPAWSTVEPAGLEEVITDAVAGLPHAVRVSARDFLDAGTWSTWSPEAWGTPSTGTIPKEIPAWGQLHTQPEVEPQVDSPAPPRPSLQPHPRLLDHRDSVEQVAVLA

Chain of recombinant his-tagged soluble human IL-6R (human) (P08887 20-365): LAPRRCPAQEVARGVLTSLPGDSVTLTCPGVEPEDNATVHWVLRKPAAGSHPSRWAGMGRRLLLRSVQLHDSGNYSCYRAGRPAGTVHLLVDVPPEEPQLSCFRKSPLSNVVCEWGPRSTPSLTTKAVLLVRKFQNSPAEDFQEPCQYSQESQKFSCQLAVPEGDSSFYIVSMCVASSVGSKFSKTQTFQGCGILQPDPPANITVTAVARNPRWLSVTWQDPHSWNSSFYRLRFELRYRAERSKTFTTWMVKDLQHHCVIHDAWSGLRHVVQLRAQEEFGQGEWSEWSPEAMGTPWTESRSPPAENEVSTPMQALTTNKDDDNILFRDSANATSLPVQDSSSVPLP
Chain of chimeric cytokine IC7, Twin-Strep-tagged (IC7ts) (P05231 30-212, change not shown): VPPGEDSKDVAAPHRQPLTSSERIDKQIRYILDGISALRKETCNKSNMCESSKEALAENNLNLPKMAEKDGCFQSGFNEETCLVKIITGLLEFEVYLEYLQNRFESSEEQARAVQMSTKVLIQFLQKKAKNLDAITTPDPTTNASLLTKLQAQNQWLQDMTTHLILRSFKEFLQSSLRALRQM

## chimeric cytokine IC7, Twin-Strep-tagged (IC7ts) (from UniProt P05231 30-212) (ligand)
[1]
  Kd: 0.00638 µM
  ka1 (two-state fit, first step): 92200 M⁻¹ s⁻¹
  ka2 (two-state fit, second step): 0.00751 s⁻¹
  kd1 (two-state fit, first step): 0.00932 s⁻¹
  kd2 (two-state fit, second step): 0.000506 s⁻¹
[2]
  Kd: 0.0481 µM
  ka1 (two-state fit, first step): 59900 M⁻¹ s⁻¹
  ka2 (two-state fit, second step): 0.0104 s⁻¹
  kd1 (two-state fit, first step): 0.0193 s⁻¹
  kd2 (two-state fit, second step): 0.00183 s⁻¹
